{"source": "patent US20230053131A1", "about": "(INTERVET, published 2023)", "binders": {"B1": {"name": "c146E2VL3-cCLk-s/c146E2VH3-cIgG-Bm (antibody, V domains shown)", "VH": "EVQLVQSGAEVKKPGASVKVSCKASGYTFARYWMHWMKQAPGAGLDWIGMIHPDSGNINYNERFKTKATLTVDKSTSTAYMELSSLRAGDIAVYYCARQLRNAMDYWGQGTLVTVSS", "VL": "DIVLTQTPLSLSVSPGETASIYCRASESVDSYGNSFLNWYQQKPGQPPKLLIYRASNLASEIPDRFSGSGSRTEFTLKISRVEADDAGVYYCQQNYENPRTFGQGTKLEIKR", "notes": "Caninized murine anti-canine IL-4R alpha antibody, canine IgG-Bm heavy chain and canine kappa light chain; also called c146E2-H3L3"}}, "target": "T1, canine IL-4 receptor alpha on DH82 cells (canine)", "T1 construct": "Endogenous receptor of the canine DH82 cell line in the STAT-6 assay; also called canine IL-4Rα; IL-4R alpha", "T1 chain": "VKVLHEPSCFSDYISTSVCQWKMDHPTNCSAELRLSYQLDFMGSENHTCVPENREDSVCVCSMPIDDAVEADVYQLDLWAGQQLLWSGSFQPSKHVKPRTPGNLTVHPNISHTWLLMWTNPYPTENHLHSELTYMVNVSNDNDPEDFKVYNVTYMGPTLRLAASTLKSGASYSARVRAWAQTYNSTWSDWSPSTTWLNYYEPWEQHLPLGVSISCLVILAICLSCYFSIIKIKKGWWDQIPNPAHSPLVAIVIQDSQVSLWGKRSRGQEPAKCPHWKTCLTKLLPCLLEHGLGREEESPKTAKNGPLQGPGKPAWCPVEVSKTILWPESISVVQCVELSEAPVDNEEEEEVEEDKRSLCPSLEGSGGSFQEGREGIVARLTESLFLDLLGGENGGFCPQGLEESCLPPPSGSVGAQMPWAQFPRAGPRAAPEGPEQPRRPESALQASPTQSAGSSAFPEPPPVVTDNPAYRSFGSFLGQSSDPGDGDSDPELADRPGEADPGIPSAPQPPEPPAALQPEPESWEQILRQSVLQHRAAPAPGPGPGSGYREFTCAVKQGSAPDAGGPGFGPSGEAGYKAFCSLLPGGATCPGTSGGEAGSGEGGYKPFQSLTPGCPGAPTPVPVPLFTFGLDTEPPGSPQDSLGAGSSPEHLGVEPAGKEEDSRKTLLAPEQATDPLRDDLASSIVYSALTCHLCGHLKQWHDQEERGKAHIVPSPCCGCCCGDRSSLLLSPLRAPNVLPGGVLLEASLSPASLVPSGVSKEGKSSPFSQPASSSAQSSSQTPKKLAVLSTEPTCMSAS", "assay": "inferred by the filing from inhibition of STAT-6 phosphorylation in DH82 cells", "experimental": "Methods [0121] 1. Two tissue culture plates were seeded with 8×10⁴ DH82 cells per well (200 μL with the density of 4×10⁵ cells/mL) and incubated at 37° C. overnight. [0122] 2. The test antibodies were pre-diluted to 500 μg/mL and then 3-fold serially diluted in DH82 Cell Growth Media. The media was removed from the cell culture plates and 50 μL/well of the serially diluted test sample were transferred to each plate. [0123] 3. Canine IL-4 was diluted to 5 ng/mL in DH82 Cell Growth Media and 50 μL was added to each well of one plate. Canine IL-13 was diluted to 10 ng/mL in DH82 Cell Growth Media and 50 μL was added to each well of the second plate. The plates were incubated for 15 min at 37° C. [0124] 4. The media was removed from the plates and 100 μL per well of freshly prepared 1× lysis buffer from the AlphaLISA p-STAT-6 Assay Kit was added to the plate. The plate was agitated on a plate shaker with 350 rpm for 10 minutes at room temperature. [0125] 5. The Acceptor Mix was prepared from the AlphaLISA p-STAT6 Assay Kit and […] was added to 30 μL of the cell lysate in 96-well 1/2 Area Plates. The plates were sealed, agitated for 2 minutes at 350 rpm, and then incubated for 2 hours at room temperature. [0126] 6. […] The plates were read using the AlphaScreen settings on the Perkin Elmer EnVison.", "data": [{"binder": "B1", "values": [{"measurement": "binding result", "result": "binds"}]}]}
